Source: the supplement of paper PMC10724198
± gives the standard deviation of the averaged measurements.

tested on: Saccharomyces cerevisiae; assay: protein stability index of tFT-peptide fusion (C-terminal peptide) (PSI (0-1 scale)); higher = more stable (slower turnover); conditions: genetic background: wild type; temperature: 30 C
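Note: PSI is a weighted mean of sequencing reads over stability bins, variants kept only with over 10 reads, mCherry proximal and sfGFP distal, peptide attached via GGGS linker.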

NIIADTHARRRF and NIKEKRNKKKRR are within error of each other in protein stability index: 0.748 ± 0.11 for the first, 0.677 ± 0.073 for the second.

NINITQNVKNIK and NIPESSVSKLSK are within error of each other in protein stability index: 0.716 ± 0.06 for the first, 0.678 ± 0.026 for the second.

Going from NIRYRQKEKKND to NKDGIKKKKYNK, the protein stability index rises from 0.573 ± 0.031 to 0.668 ± 0.032.

NKFLRSVVRKHE and NKFNTINQNREV are within error of each other in protein stability index: 0.671 ± 0.011 for the first, 0.678 ± 0.04 for the second.

Compared with NKHDGRKWARYK, NKKETRKQKTKK is higher in protein stability index: 0.6494 ± 0.00069 for the first, 0.673 ± 0.017 for the second.

First: NKKGMSIWANER
Second: NKKIYRTKIKKL
The protein stability index of the first is higher: 0.68915 ± 0.0002 for the first, 0.5917 ± 0.00069 for the second.

NKKKKHTQYKRK and NKKQTKKKRKNK are within error of each other in protein stability index: 0.694 ± 0.0077 for the first, 0.731 ± 0.037 for the second.

NKLYDESLALYP and NKNGGDLCLGSS are within error of each other in protein stability index: 0.704 ± 0.044 for the first, 0.652 ± 0.049 for the second.

Compared with NKTIVNNVKIRY, NKVRDKTQLKIE is higher in protein stability index: 0.574 ± 0.0065 for the first, 0.78 ± 0.094 for the second.

NLCRLGHTAGVL and NLKLIRSEYNLN are within error of each other in protein stability index: 0.753 ± 0.086 for the first, 0.658 ± 0.042 for the second.

First: NLRKGHSDERVV
Second: NLRSIYKLGRLT
The protein stability index of the first is higher: 0.691 ± 0.071 for the first, 0.549 ± 0.011 for the second.

NLRVANLAQRTE and NLSLPSPPLTTN are within error of each other in protein stability index: 0.703 ± 0.05 for the first, 0.731 ± 0.0082 for the second.

NMIKNNKWDINR and NMYQQIESEYSK are within error of each other in protein stability index: 0.7 ± 0.074 for the first, 0.676 ± 0.045 for the second.

NNEKIEQRYSMK and NNRIRNIISIRK are within error of each other in protein stability index: 0.711 ± 0.019 for the first, 0.743 ± 0.04 for the second.

NPFCPILPFALL and NPLDRQNCTCGE are within error of each other in protein stability index: 0.853 ± 0.069 for the first, 0.656 ± 0.13 for the second.

Compared with NPLKAGFLVVTT, NPPPSPALLSRP is higher in protein stability index: 0.6508 ± 0.0032 for the first, 0.809 ± 0.06 for the second.

First: NPSSKVIALWKI
Second: NPTPPNLRSNLF
The protein stability index of the first is lower: 0.556 ± 0.046 for the first, 0.6877 ± 0.0055 for the second.

NPVFPPPPHSQL and NPWTHVPGRQNH are within error of each other in protein stability index: 0.75 ± 0.18 for the first, 0.731 ± 0.054 for the second.

NQPPFPLRRPPT and NRCGGACGRQAG are within error of each other in protein stability index: 0.699 ± 0.048 for the first, 0.711 ± 0.027 for the second.

NRCIRIQETVRI and NRFFFRHGCVVF are within error of each other in protein stability index: 0.619 ± 0.053 for the first, 0.691 ± 0.031 for the second.

NRNSHSGKIKLK and NRVHLPELAFIT are within error of each other in protein stability index: 0.691 ± 0.049 for the first, 0.662 ± 0.014 for the second.

Going from NRVPKKPAHLQQ to NSCVFCLCHDLA, the protein stability index rises from 0.647 ± 0.013 to 0.6991 ± 0.006.

NSGKPWTLGRQE and NSPTYEEKERHL are within error of each other in protein stability index: 0.701 ± 0.043 for the first, 0.82 ± 0.15 for the second.

NSRDCILQARET and NTMVPPTGSGNA are within error of each other in protein stability index: 0.713 ± 0.012 for the first, 0.732 ± 0.13 for the second.

NTPNRNFTYTEN and NTRIKGERNILH are within error of each other in protein stability index: 0.685 ± 0.038 for the first, 0.702 ± 0.026 for the second.

NTRKNTTRKSQE and NVYSVRGPWYGG are within error of each other in protein stability index: 0.637 ± 0.042 for the first, 0.6604 ± 0.0059 for the second.

NYRPAHSFGVIS and NYSKPSYLVRAK are within error of each other in protein stability index: 0.725 ± 0.018 for the first, 0.697 ± 0.053 for the second.

Compared with PAAPLPPTPPPP, PAAPPHGFPPPR is lower in protein stability index: 0.708 ± 0.0082 for the first, 0.6341 ± 0.0046 for the second.

PACSPLPPLPLS and PADPRSSPPVQQ are within error of each other in protein stability index: 0.7 ± 0.018 for the first, 0.691 ± 0.02 for the second.

PAGFQTPPLVHD and PAHPHPYHPSLH are within error of each other in protein stability index: 0.708 ± 0.091 for the first, 0.6265 ± 0.0042 for the second.

PAHPPPPATPCP and PAHPSDIGAAAP are within error of each other in protein stability index: 0.6817 ± 0.0063 for the first, 0.675 ± 0.042 for the second.

PAHSYPILASGH and PALKQEGRPEHS are within error of each other in protein stability index: 0.675 ± 0.034 for the first, 0.6942 ± 0.0053 for the second.

PALLTICRTSLP and PALPPPFPPFSP are within error of each other in protein stability index: 0.64 ± 0.00076 for the first, 0.72 ± 0.084 for the second.

PALPPPPPSPPL and PALPPPSLPPPP are within error of each other in protein stability index: 0.676 ± 0.15 for the first, 0.6718 ± 0.0023 for the second.

PALTSSGPPPLV and PANQVKTILGRL are within error of each other in protein stability index: 0.741 ± 0.096 for the first, 0.694 ± 0.11 for the second.

First: PAPALPPPSSPP
Second: PAPAPPPPAVPL
The protein stability index of the first is higher: 0.69 ± 0.0095 for the first, 0.612 ± 0.018 for the second.

PAPAPSPSFRDH and PAPASDYLRGRR are within error of each other in protein stability index: 0.708 ± 0.094 for the first, 0.691 ± 0.049 for the second.

PAPPPPPLPPPP and PAPPPPPPRPPP are within error of each other in protein stability index: 0.615 ± 0.041 for the first, 0.669 ± 0.071 for the second.

First: PAPPPPPRPPPS
Second: PAPPSPPPPLYP
The protein stability index of the first is lower: 0.655 ± 0.008 for the first, 0.721 ± 0.046 for the second.

PAPPSPSPPPPL and PAPPTPPPPLYP are within error of each other in protein stability index: 0.836 ± 0.14 for the first, 0.715 ± 0.015 for the second.

First: PAPPVFVPSLPL
Second: PAPRLEPRSPNV
The protein stability index of the first is higher: 0.801 ± 0.029 for the first, 0.676 ± 0.021 for the second.

PAPSAPLLRTRP and PAPSLPPPRLAP are within error of each other in protein stability index: 0.6702 ± 0.0019 for the first, 0.653 ± 0.026 for the second.

PAPSPLVLFFGF and PAPSRRTVTDYW are within error of each other in protein stability index: 0.692 ± 0.03 for the first, 0.654 ± 0.015 for the second.

PARTPSPPAPSH and PASASVHPRILC are within error of each other in protein stability index: 0.657 ± 0.056 for the first, 0.559 ± 0.05 for the second.

PASLPPSPPLLL and PASPPTSPRSVP are within error of each other in protein stability index: 0.696 ± 0.039 for the first, 0.742 ± 0.022 for the second.

First: PASRNWGLNPDT
Second: PATRFSPPSSLS
The protein stability index of the first is lower: 0.677 ± 0.025 for the first, 0.745 ± 0.028 for the second.

PAVGPDGTIRPL and PAWVEARWLCRG are within error of each other in protein stability index: 0.706 ± 0.037 for the first, 0.764 ± 0.069 for the second.

PAYLMDRGYIMT and PAYVSTLPPLLL are within error of each other in protein stability index: 0.613 ± 0.031 for the first, 0.694 ± 0.086 for the second.

PCFLLPLPHTPP and PCIKHNSSLIGP are within error of each other in protein stability index: 0.707 ± 0.024 for the first, 0.701 ± 0.081 for the second.

PCPAPLPPPAPP and PCPLAHSLWLMF are within error of each other in protein stability index: 0.619 ± 0.0098 for the first, 0.612 ± 0.056 for the second.

PCPPARSSLALS and PCPSPPALPLAP are within error of each other in protein stability index: 0.636 ± 0.051 for the first, 0.696 ± 0.056 for the second.

PCTGSKRRSLKS and PCTPLPRPRTSR are within error of each other in protein stability index: 0.717 ± 0.055 for the first, 0.702 ± 0.065 for the second.

PCYSFSSSPPRL and PDERMVIPAIRD are within error of each other in protein stability index: 0.693 ± 0.016 for the first, 0.665 ± 0.12 for the second.

PDHFPSPALPTH and PDPPSPSPFPAP are within error of each other in protein stability index: 0.702 ± 0.0097 for the first, 0.724 ± 0.049 for the second.

PDRQVTAFPCFW and PDSASSLTPPPP are within error of each other in protein stability index: 0.6787 ± 0.0051 for the first, 0.66 ± 0.085 for the second.

PDTLCAYLSFGS and PDTRLGIIITNM are within error of each other in protein stability index: 0.776 ± 0.064 for the first, 0.701 ± 0.083 for the second.

PDVFIWIRPLLP and PDVNLVRRVMSL are within error of each other in protein stability index: 0.6282 ± 0.0062 for the first, 0.596 ± 0.053 for the second.

PDVPVTCYAASH and PEERSGTSAGRL are within error of each other in protein stability index: 0.661 ± 0.067 for the first, 0.695 ± 0.038 for the second.

PEGICYCHSPAP and PEGPPRPPLHPS are within error of each other in protein stability index: 0.694 ± 0.013 for the first, 0.696 ± 0.019 for the second.

First: PEPEPAGASQKR
Second: PERWFPSTPSLP
The protein stability index of the first is lower: 0.577 ± 0.0076 for the first, 0.702 ± 0.031 for the second.

PEYGSGCNCLGS and PFAPSPRPPQPP are within error of each other in protein stability index: 0.664 ± 0.0073 for the first, 0.672 ± 0.02 for the second.

PFATARLFPLPP and PFECRRPFPPPA are within error of each other in protein stability index: 0.804 ± 0.019 for the first, 0.764 ± 0.067 for the second.

PFEVPSSVISVP and PFIAHSACAALN are within error of each other in protein stability index: 0.673 ± 0.13 for the first, 0.604 ± 0.011 for the second.

PFIPQPFPPLCS and PFPFLPSPIFPQ are within error of each other in protein stability index: 0.709 ± 0.075 for the first, 0.749 ± 0.057 for the second.

First: PFPPPPSPPLYP
Second: PFPPSAAPPLPF
The protein stability index of the first is higher: 0.7292 ± 0.0012 for the first, 0.593 ± 0.068 for the second.

First: PFPPSAHPPPPH
Second: PFPRSSPPPPPD
The protein stability index of the first is higher: 0.795 ± 0.085 for the first, 0.652 ± 0.017 for the second.

PFPSPPSPRDAS and PFRSPSLPYFRL are within error of each other in protein stability index: 0.688 ± 0.042 for the first, 0.712 ± 0.018 for the second.

PFSLLPDASPPL and PFSLPPPHLWSI are within error of each other in protein stability index: 0.703 ± 0.04 for the first, 0.746 ± 0.065 for the second.

First: PFVCPHLPAPPP
Second: PFVGFSLLWLGF
The protein stability index of the first is higher: 0.791 ± 0.094 for the first, 0.567 ± 0.017 for the second.

Going from PGAFLRLSPPRA to PGAGKRLIERVK, the protein stability index falls from 0.7019 ± 0.0013 to 0.593 ± 0.062.

PGCGVGSPARAE and PGCYRVPIHSFS are within error of each other in protein stability index: 0.712 ± 0.032 for the first, 0.7131 ± 0.0015 for the second.

First: PGKRPTERLAPS
Second: PGLIPSPRYLLP
The protein stability index of the first is higher: 0.749 ± 0.026 for the first, 0.656 ± 0.024 for the second.

PGLSTGAVKLLY and PGPGNGHTKRTR are within error of each other in protein stability index: 0.692 ± 0.023 for the first, 0.654 ± 0.034 for the second.

PGRLVVGAGRED and PGRRATKVPSPR are within error of each other in protein stability index: 0.707 ± 0.036 for the first, 0.719 ± 0.027 for the second.

PGSAVSFLLTFR and PGSFDLSDLAFA are within error of each other in protein stability index: 0.646 ± 0.012 for the first, 0.707 ± 0.073 for the second.

Compared with PGSRRAQPVTSG, PGTGPPSWGRTS is lower in protein stability index: 0.741 ± 0.022 for the first, 0.605 ± 0.047 for the second.

Going from PGTNENPLSPGK to PHAGPLHTPLRL, the protein stability index falls from 0.7302 ± 0.0041 to 0.699 ± 0.019.

Compared with PHILPTSDSPFP, PHLHLPPPPISA is lower in protein stability index: 0.78463 ± 0.00073 for the first, 0.5857 ± 0.00069 for the second.

PHLPPPPDPPRP and PHLWSLPHATTA are within error of each other in protein stability index: 0.676 ± 0.009 for the first, 0.684 ± 0.051 for the second.

PHPHLPAPTPRT and PHPPLPPPPPPP are the same in protein stability index: 0.702 ± 0.0079 for the first, 0.702 ± 0.018 for the second.
